Molecular target: phosphorylated β-catenin (UniProt P35222)
Test: co-immunoprecipitation (IP-GFP), western blot densitometry
Conditions: Triton-X100 cell extracts containing 50 mM NaF; SW480 extract as source of β-catenin; parent: 1

Sequence of UniProt P35222 (P35222 whole entry): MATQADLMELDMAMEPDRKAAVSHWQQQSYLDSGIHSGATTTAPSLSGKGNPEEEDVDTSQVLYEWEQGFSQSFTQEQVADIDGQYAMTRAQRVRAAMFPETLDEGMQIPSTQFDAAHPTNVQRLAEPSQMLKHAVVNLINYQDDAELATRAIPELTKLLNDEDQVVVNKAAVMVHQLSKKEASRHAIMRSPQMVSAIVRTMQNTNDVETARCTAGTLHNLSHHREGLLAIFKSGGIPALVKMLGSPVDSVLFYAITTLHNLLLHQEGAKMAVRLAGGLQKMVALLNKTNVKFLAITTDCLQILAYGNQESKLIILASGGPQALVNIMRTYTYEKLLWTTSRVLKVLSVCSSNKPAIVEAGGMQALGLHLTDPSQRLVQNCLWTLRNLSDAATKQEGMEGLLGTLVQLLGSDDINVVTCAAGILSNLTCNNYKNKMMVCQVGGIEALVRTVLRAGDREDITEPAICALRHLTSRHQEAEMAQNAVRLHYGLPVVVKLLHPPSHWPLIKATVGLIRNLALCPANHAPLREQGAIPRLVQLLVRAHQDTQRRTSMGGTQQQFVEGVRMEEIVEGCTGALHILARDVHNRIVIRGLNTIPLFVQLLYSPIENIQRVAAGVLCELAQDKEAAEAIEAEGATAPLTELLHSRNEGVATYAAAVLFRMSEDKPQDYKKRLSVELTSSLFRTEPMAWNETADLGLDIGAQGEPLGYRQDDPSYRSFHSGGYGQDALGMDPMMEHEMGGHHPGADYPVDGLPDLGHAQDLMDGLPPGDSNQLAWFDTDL

Substance: yAPC1289 (from UniProt P25054) 20R1µ
- other: Ratio Phospho/total: 0.9

Reference: paper PMC3698177
